Laboratory results from patent publication US20080044360A1 (COLLAGEN MEDICAL, published 2008).
Bridge positions count the residues as written; N and C are the ends. Square brackets hold non-standard residues; d marks the D form. Primed or numbered codes have the meaning given here. Side chains are listed from the residue outwards. Ends that are not written are not given here. * marks the point of attachment. Bpa = N[C@@H](Cc1ccc(C(=O)c2ccccc2)cc1)C(=O)O; Gd^D = GdDOTAGA (gadolinium DOTAGA chelate); Bip = N[C@@H](Cc1ccc(-c2ccccc2)cc1)C(=O)O; Gd^T(3) = GdDTPA attached via thiourea; 1Nal = N[C@@H](Cc1cccc2ccccc12)C(=O)O; 2Nal = N[C@@H](Cc1ccc2ccccc2c1)C(=O)O; Bta = N[C@@H](Cc1csc2ccccc12)C(=O)O; 1,4 AMB(Gd^T) = not defined here; Hyp = O=C(O)[C@@H]1C[C@@H](O)CN1; 2Pal = N[C@@H](Cc1ccccn1)C(=O)O; 4Pal = N[C@@H](Cc1ccncc1)C(=O)O; Gd^G = not defined here; Gd^T = not defined here; Gd^T″ = GdDTPA-thiourea; NH(CH2)6NH2 = NCCCCCCN*; Dap = NC[C@H](N)C(=O)O; AEEA = NCCOCCOCC(=O)O; Aib = CC(C)(N)C(=O)O

Experiments:
[1] = molecular target: T1, rat collagen, acid soluble, type I, rat tail (Upstate 08-115) (rat, UniProt P02454 152-1207; P02466 86-1125); assay: dried collagen assay
T1 construct: tissue extract, gelled and dried in wells; also called dried rat collagen

[2] = molecular target: T2, human collagen type I, acid soluble, extracted from placenta (Sigma C7774) (human, UniProt P02452 162-1218; P08123 80-1119); assay: dried collagen assay
T2 construct: tissue extract, gelled and dried in wells; also called dried human collagen; h-Collagen
T2 sequence (P02452 162-1218 limits assumed, chain 1 of 2): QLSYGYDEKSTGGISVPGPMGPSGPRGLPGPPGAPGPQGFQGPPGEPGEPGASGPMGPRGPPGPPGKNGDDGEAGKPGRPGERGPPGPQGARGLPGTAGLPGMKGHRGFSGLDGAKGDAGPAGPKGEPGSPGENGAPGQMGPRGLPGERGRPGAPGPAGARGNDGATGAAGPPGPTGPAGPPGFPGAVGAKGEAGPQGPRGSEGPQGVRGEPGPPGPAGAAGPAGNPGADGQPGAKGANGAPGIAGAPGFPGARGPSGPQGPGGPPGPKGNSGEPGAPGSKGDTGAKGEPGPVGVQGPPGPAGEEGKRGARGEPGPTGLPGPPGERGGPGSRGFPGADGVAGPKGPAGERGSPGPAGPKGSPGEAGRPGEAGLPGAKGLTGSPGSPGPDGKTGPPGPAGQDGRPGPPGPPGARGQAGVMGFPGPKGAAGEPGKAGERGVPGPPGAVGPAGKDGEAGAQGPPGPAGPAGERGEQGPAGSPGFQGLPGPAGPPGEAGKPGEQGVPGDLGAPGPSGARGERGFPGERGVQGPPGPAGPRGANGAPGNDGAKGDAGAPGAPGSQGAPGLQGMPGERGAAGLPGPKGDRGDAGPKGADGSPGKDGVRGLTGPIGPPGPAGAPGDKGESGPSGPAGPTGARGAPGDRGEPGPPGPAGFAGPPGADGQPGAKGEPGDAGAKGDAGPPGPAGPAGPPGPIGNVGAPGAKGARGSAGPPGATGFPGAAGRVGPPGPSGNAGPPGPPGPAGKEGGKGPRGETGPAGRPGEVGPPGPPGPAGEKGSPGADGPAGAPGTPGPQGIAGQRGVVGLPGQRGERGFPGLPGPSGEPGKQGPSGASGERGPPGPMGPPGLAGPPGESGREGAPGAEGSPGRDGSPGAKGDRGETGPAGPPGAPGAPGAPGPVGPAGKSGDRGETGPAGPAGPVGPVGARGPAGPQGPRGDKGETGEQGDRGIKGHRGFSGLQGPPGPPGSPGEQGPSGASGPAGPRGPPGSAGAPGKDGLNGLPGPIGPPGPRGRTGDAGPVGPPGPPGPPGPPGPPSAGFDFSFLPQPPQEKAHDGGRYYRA
T2 sequence (P08123 80-1119 limits assumed, chain 2 of 2): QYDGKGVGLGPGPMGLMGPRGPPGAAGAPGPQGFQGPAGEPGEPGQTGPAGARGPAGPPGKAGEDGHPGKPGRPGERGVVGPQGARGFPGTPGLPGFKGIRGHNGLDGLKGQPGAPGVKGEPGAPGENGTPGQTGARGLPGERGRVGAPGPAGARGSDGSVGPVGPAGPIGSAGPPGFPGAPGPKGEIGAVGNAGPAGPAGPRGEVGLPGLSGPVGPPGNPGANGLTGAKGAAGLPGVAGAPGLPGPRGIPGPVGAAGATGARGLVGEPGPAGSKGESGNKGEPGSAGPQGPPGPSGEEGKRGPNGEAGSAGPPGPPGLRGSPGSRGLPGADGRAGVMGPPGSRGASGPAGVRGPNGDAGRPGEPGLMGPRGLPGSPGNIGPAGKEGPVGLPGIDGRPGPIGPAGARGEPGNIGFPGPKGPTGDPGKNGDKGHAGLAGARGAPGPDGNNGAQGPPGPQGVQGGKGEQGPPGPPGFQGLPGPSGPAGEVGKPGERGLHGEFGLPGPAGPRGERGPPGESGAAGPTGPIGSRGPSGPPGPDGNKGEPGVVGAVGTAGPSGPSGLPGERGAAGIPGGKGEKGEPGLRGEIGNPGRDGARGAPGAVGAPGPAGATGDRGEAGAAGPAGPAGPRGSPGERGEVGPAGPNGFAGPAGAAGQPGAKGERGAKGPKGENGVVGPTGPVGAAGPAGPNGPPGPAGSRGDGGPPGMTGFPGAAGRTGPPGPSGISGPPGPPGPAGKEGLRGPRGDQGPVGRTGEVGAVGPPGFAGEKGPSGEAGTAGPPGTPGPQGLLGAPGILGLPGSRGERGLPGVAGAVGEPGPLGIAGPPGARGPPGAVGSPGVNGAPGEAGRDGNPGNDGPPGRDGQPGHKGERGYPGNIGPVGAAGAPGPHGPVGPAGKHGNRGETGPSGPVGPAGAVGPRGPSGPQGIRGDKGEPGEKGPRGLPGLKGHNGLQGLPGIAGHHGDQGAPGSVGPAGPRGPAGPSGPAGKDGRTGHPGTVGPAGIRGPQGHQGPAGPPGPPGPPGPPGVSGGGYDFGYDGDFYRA

T1 sequence (P02454 152-1207, chain 1 of 2): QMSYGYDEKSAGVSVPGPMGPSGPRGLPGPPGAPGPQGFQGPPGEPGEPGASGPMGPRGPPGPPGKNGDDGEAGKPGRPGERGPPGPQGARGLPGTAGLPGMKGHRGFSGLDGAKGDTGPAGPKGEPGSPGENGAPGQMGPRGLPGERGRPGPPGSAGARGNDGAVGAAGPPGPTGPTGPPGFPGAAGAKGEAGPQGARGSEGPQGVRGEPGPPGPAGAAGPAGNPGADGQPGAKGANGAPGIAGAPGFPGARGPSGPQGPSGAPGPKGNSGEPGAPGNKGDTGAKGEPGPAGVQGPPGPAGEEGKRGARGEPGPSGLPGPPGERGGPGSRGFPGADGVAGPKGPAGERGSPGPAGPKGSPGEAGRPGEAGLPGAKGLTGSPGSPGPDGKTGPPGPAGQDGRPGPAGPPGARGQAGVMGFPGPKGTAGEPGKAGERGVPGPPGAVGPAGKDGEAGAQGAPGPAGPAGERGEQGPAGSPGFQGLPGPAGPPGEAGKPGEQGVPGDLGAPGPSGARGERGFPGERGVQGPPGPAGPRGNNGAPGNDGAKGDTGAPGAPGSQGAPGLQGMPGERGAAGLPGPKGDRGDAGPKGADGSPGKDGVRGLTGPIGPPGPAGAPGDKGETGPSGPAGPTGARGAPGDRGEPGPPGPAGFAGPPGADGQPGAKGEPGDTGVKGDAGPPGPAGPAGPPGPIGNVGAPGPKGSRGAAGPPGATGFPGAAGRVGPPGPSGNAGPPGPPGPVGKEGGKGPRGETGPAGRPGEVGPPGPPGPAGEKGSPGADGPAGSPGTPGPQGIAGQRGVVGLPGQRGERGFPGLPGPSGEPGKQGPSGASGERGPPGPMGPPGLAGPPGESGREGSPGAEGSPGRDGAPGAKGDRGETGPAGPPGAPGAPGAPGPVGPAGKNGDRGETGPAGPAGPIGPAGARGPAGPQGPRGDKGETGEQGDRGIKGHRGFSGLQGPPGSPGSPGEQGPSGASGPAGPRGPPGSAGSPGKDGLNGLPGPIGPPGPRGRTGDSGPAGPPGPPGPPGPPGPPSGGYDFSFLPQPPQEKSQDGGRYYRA
T1 sequence (P02466 86-1125, chain 2 of 2): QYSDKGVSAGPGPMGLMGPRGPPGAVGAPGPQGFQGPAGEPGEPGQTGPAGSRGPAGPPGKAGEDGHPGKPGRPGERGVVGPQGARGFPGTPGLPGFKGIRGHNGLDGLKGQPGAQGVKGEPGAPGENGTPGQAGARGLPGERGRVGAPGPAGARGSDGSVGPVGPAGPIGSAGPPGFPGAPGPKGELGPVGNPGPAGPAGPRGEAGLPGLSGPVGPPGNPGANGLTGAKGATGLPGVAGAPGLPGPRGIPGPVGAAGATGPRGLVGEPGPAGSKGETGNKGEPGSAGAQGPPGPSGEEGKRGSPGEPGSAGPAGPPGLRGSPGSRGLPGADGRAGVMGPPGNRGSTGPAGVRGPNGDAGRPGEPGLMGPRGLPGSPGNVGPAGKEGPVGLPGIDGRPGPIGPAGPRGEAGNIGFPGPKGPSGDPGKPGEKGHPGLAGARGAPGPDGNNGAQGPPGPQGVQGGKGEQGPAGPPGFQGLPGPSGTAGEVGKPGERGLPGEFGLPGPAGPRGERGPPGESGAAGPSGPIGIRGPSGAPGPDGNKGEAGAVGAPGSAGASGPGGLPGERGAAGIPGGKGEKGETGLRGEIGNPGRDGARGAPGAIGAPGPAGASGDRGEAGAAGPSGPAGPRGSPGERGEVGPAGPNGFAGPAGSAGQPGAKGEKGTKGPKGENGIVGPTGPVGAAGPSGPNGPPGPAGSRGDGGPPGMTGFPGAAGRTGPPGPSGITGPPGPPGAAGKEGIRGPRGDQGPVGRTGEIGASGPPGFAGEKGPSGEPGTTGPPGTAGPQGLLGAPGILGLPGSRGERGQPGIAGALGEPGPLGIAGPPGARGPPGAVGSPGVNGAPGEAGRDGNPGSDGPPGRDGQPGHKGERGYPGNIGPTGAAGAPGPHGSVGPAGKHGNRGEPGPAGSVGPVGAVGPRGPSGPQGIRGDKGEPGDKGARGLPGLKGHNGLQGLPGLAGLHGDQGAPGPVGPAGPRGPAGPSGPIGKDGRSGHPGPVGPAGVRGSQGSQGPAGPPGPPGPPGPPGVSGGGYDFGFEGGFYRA

Binder	% bound [1]	% bound [2]
{Gd^G}-GQWTCSGDAYTWHCAYE (disulfide 5-14 (inferred); not fully specified (C-terminus); reading uncertain) [Compound ID 820]	29%	60%
{Gd^T″}-GAWTCSGDEYTWHCNYE (disulfide 5-14 (inferred); not fully specified (C-terminus)) [Compound ID 830]	11%	26%
GQWTCSGDAYTWHCNYE (disulfide 5-14 (inferred); not fully specified (N-terminus, C-terminus)) [Compound ID 838]	61%	70%
{Gd^T}-GQWTCSGDEYTWHCAYE (disulfide 5-14 (inferred); not fully specified (C-terminus); reading uncertain) [Compound ID 839]	11%	30%
{Gd^T}-GQWTCSGDEYTWHCNYA (disulfide 5-14 (inferred); not fully specified (C-terminus); reading uncertain) [Compound ID 841]	28%	51%
{Gd^T″}-GK([Gly-Gd^T″])WHCTTK(Gd^T″)FPHHYCLY[Bip] (disulfide 5-14; not fully specified (C-terminus), also called Comp ID No:800) [Compound ID 800]	88%	85%
{Gd^T″}-GQWHCTTRFPHHYCLYGK(Gd^T″) (disulfide 5-14 (inferred); not fully specified (C-terminus)) [Compound ID 807]	45%	48%
{Gd^T″}-GQWHCTTRFPHHYCLYG[dK](Gd^T″) (disulfide 5-14 (inferred); not fully specified (C-terminus)) [Compound ID 808]	19%	25%
{Gd^G}-GQWTCSGDEYTWHCNY (disulfide 5-14 (inferred); not fully specified (C-terminus); reading uncertain) [Compound ID 823]	28%	53%
{Gd^T″}-GQWTCYGDEYTWYCNYE (disulfide 5-14 (inferred); not fully specified (C-terminus)) [Compound ID 826]	71%	87%
{Gd^T}-DWTC[4Pal]GDEYTWHCNYE (disulfide 4-13; not fully specified (C-terminus); reading uncertain) [Compound ID 849]	42%	64%
{Gd^T}-DWTCSGDEYTWHCNY[Aib] (disulfide 4-13; not fully specified (C-terminus); reading uncertain) [Compound ID 850]	67%	75%
{Gd^T}-PPQWHCTTRFPHHYCLYG (disulfide 6-15 (inferred); not fully specified (C-terminus); reading uncertain) [Compound ID 854]	56%	64%
{Gd^T}-PPQWHCTTRF[Hyp]HHYCLYG (disulfide 6-15; not fully specified (C-terminus); reading uncertain) [Compound ID 856]	42%	52%
{Gd^T}-GQWHCTTR[1Nal]PHHYCLYG (disulfide 5-14; not fully specified (C-terminus); reading uncertain) [Compound ID 860]	45%	60%
{Gd^T}-GQWHCTTYFPHHYCLYG (disulfide 5-14 (inferred); not fully specified (C-terminus); reading uncertain) [Compound ID 861]	79%	73%
{Gd^T″}-GQWHCTTRFPHH[1Nal]CLYG (disulfide 5-14) [Compound ID 867]	48%	55%
{Gd^T″}-GQ[Bta]HCTTRFPHHYCLYG (disulfide 5-14) [Compound ID 868]	40%	36%
{Gd^T″}-GQ[2Nal]HCTTRFPHHYCLYG (disulfide 5-14) [Compound ID 872]	35%	41%

The remaining lines, values ahead:

% bound [1]	% bound [2]	Binder
11%	23%	{Gd^T″}-GK([Gly-Gd^T″])WHCYK(Gd^T″)YFPHHYCLYG (disulfide 5-14 (inferred); not fully specified (C-terminus)) [Compound ID 991]
75%	71%	{Gd^T″}-GK([Gly-Gd^T″])WHCYTYFPHHYCVYG-{AEEA-Gd^T″} (disulfide 5-14 (inferred)) [Compound ID 998]
66%	65%	{Gd^T″}-GK([Gly-Gd^T″])WHCYTYFPHHYCVYG-{NH(CH2)6NH2-Gd^T″} (disulfide 5-14 (inferred)) [Compound ID 999]
68%	75%	{Gd^T″}-GK([Gly-Gd^T″])WHCYTYFPHHYCVYG-{1,4 AMB(Gd^T)} (disulfide 5-14 (inferred); reading uncertain) [Compound ID 1000]
93%	94%	{Gd^T″}-GK([Gly-Gd^T″])WHCYTK(Gd^T″)FPYHYCVYY (disulfide 5-14 (inferred)) [Compound ID 1011]
88%	81%	{Gd^T″}-GK([Gly-Gd^T″])WHCYTK(Gd^T″)FPHHYCK(Gd^T″)YY (disulfide 5-14 (inferred)) [Compound ID 1013]
61%	72%	{Gd^D}-K(Gd^D)K(Gd^D)WHCYTYFPHHYCVYG (disulfide 5-14 (inferred)) [Compound ID 1014]
79%	78%	{Gd^T(3)}-GK([Gly-Gd^T(3)])WHCTTYFPHHYCLY[Bip] (disulfide 5-14) [Compound ID 950]
55%	53%	{Gd^T(3)}-K(Gd^T(3))K(Gd^T(3))WHCTTK(Gd^T(3))FPHHYCLY[Bip] (disulfide 5-14 (inferred)) [Compound ID 997]
13%	0%	{Gd^T″}-GQWHCTTD[Bpa]PHHYCLYG (disulfide 5-14) [Compound ID 882]
15%	20%	{Gd^T(3)}-GQWHCTTD[2Nal]PHHYCLYG (disulfide 5-14; not fully specified (C-terminus)) [Compound ID 894]
64%	78%	{Gd^T(3)}-GQWHCTTLFPHH[1Nal]CLYG (disulfide 5-14; not fully specified (C-terminus)) [Compound ID 913]
33%	38%	{Gd^T″}-GQWHCTTRFPHH[Bip]CLYG (disulfide 5-14) [Compound ID 873]
28%	45%	GQWHCTTYFPHHYCLYG-{AEEA-Gd^G} (disulfide 5-14 (inferred); reading uncertain, no N-terminal chelate printed) [Compound ID 874]
60%	64%	{Gd^T″}-GK([Gly-Gd^T″])QWHCTTYFPHHYCLYG (disulfide 6-15 (inferred)) [Compound ID 875]
28%	19%	{Gd^T″}-GQWHCTTR[Bip]PHHYCLYG (disulfide 5-14) [Compound ID 881]
16%	0%	{Gd^T″}-GQWHCTTDFPH[Dap](Gd^T″)YCLYG (disulfide 5-14) [Compound ID 887]
30%	38%	{Gd^T″}-GQWHCTTDFPH[2Pal]YCLYG (disulfide 5-14) [Compound ID 888]
19%	38%	{Gd^T″}-GQWHCTTDFPHHYCL[Bpa]G (disulfide 5-14) [Compound ID 889]
70%	79%	{Gd^T(3)}-GQWHCTTDFPHHYCL[2Nal]G (disulfide 5-14) [Compound ID 891]
